Measured values as given in the DeepSol protein solubility set.

Assay: soluble on expression in E. coli; label from the status in PepcDB or PDB records

Row | Sequence | soluble on expression in E. coli
1 | AIATNDANHLESNCVEEQVQQSLREPWWWLRWRDTPRQQLRGTLFVYTATCPDEKIQRERGFAADHEQVYAFVSFGPEVETDPREHVVEIVKALTSMRSFVETLERTLFEDEDSEPAARTYTHDEPCSVAHHSADADQQFLVETVRHDRIAAAYSSMSQEMHTAPEGARPDCFSKGTSQDHETDTSQPILRKKDETDTWVVALGPDHLVASHTLAACGCALFLGLEWDFRACRSRSDDDFRIMELFQEDLKSRVTWLAPRLGLQHKHACSAQCKDQARNRDSSWDVLLREWLPQAIPGGPRHPQAM | soluble
2 | MSLIQAIKAKIIVTPGHAPIKDSAVIVKNNIIEKIIPSTELKNNYYQIIDLKNSVVLPGFINSHIHLELHWVQKLLEPFKSFPSWLNQIIKLKKNFNNSKIPYWVNKSLNECINSGVTTIGEISSYDGLDYKPILDKKIRAVYFYELTNSTLKNIENKFFQSLIRNKTNPLINFRIFPHSIYSLDTKSLKRILAFAKKHNIKLGMHLSESIDEVKYSKRKRNNFEKEVFPKTSYKPTIETKPTTPLEYLDTLNINRQHITLIHMNNLSQNDFKILTKKEYPVIICPRSNLYLNQKLPNIKFFMNYMKTGLGTDGLSSNLSINFLDEINFLYLNAKKIINNPEEKILSIATIGGAKALGIDNEVGTIEKGKKADIIAFDLLNKNPYLSIIHSKKRNLKMSMINGKIIKLREGHHHHHH | soluble
3 | MGLGSSKRKEEPPHKSEPKTVGRVKRAGARPDEMIAKYAEVLKTRGILPEYFLVHEAKSSQYIDEDGDVANEFYQETMSDGEKRRLCRLMKNLRPKGKERYAIPRLKHDIPVVIWEVQQPQET | not soluble
4 | MGSDKIHHHHHHMNKTMWSIGFQKHLPINEEASLFRFETAVPQPEGRDLLVKVDAVSVNPIDVAVRKNGTETLDEPKVIGWDAVGTVIAKGASAGYFEIGDRVFYAGSFKRAGSDSEYQLVDERVVGHAPEKLSNAEAAAMPLTSLTAWEALFEQLEIDREDVQGNADKSILIINGAGGVGSIATQLAQKAGLHVIASASRPETIEWCLKHGADETVNHRNNLIDEVRNLGHQYVDYILELNNIDAHWDEMVELIKPNGRMTSITQNHEPVDLKALKHKRVTFAWEWMYTKSYYETPDMETQHVYLDEIARLLDAGELISTLTKQLSPINVENLKQAHKLVEGNHMMGKVVVENLED | not soluble
5 | MNKIKILSITLEKRIISKNENDHSHQVIGQETEMTSKLEIRHKQRQDEIINAARRCFRRCGFHAASMSQIASEAQLSVGQIYRYFANKDAIIEEMVRRIIDFRIAQMDIDARTDHFPEVLALRKSLNEDDDALMLEVAAEATRNPRVMAMLEEADARMFANGCAHMKRMHPHLSDEHIRCCVEVFATMMEGTVYRRLTPQKSDPQHLQEIYQDIVSMLINK | not soluble
6 | MGKVTIIAGGIKTESRLTGLTQLAANELVTNGLEVNIIEVHKINAEALVTADFAHSDIQLANSEIESSSGVIIATPIFKAAYSGVLKAYLDLLPLKALKGKVVLPLGLGGSNGHLLALQYALDPVLKELGAETILKGQFTVDKQIERLGDGLYEIESSAKERLDIALGQFISLLNQQSVEVLEHHHHHH | soluble
7 | NKDFWIKGMGNFTLAKGRYEVYEEPDYASYGQGYRSRIGQPINFNYGYIAERLFIDENDVANSPSQTSFNGGAMPGDIKYKDLNNDGKITSEDQIFLGYPNQPEITYGFGFSTGYKGFDLSMFFQGNARVSFFIDPRNTSPFVNYDAGGKTGVQQCLDVIAKDHWSEDNRNIYAFWPRLSPTLVENNMQTSTWWMHDGSFIRLKTVELGYTFSQKALKKIGVQSLRLYLTGSNLLTFSKFKLWDAEMGNNGLGYPIQRVYNLGININF | not soluble
8 | MGSDKIHHHHHHMTAMRGDGGRVLHTGFGVVRGVLFDIDDTLVDLEYAMTTALRDVSEHLLPGLDQAGWEKFGRIFTHETTHFYDRYLAGELTFNEQRLLRGRAALGHFGVELEEGEESHAWVTSYAALQHGYVRAFEDVAPVLDALDAAGIPYGAVSNNVHDYQRVKLDAAGLQRITVLVGTDTLGVPKPDPAIYLEGVRLLGSSAAETLYVGDNRLLDAEGSTAAGLLGVWLNRSGETESAFAGHQVGSLAELLG | not soluble
9 | MRDKTLKAILAHAEAEHPKECCGVVAQKSRVEKYFPCENLATNPTEQFHLDPTGYVEAEDWGTITAIVHSHPDATTQPSELDMAQCDNNELPWHIVSWPEGDLRTIQPRGDLPLVGREFVLGHTDCWGLIMSYFRQTHDIELKDYRVDRHWWESGTENFYMDNWYECGFREFSGPAQPGDLIIMQVSAPVANHGGILLEDGMLLHHPYGQLSQRVPYGGYWQERTMKVVRYEISQL | not soluble
10 | GPGSMYCHAGVPSTSPSPTDFSEVHKILCGHIKQGNNFSVAAAVALEPLHGSSEFWRTCGYRSGIVSALLASSLGVQRETDQLSHLEPMTVADVYAMLRHVVDENAHLRQIIARLESGECDPDDGSGGITSSTERLRSLISEGYDALTGRSSPCMGEYDCGQTPGKWKTCSNGAAGTKRRRDSPEVTEWAYVRPESPVPASETLSPAANSGDDTVDEAEQNNALDVLEQLPALPGTTRTVSSFDAVGEMVNRGAGGPSLHPTNPSEFRVGSERGSTIETHSSSEVSNFANVGVGTSSGKQKRYKFSASEDEAIIKGLARFTKGQQRFQQIYYAYRSVWHPARTVSQLYDHWRGTLRYKVIQQQGYRGKNSVAARSPEKASNMENNE | not soluble
11 | MSKLIKGIAASDGVAIAKAYLLVEPDLTFDKNEKVTDVEGEVAKFNSAIEASKVELTKIRNNAEVQLGADKAAIFDAHLLVLDDPELIQPIQDKIKNENANAATALTDVTTQFVTIFESMDNEYMKERAADIRDVSKRVLSHILGVELPNPSMIDESVVIVGNDLTPSDTAQLNKEFVQGFATNIGGRTSASAIMSRSLEIPAIVGTKSITQEVKQGDMIIVDGLNGDVIVNPTEDELIAYQDKRERYFADKKELQKLRDADTVTVDGVHAELAANIGTPNDLPGVIENGAQGIGLYRTEFLYMGRDQMPTEEEQFEAYKEVLEAMGGKRVVVRTLDIGGDKELSYLNLPEEMNPFLGYRAIRLSLAQQDIFRPQLRALLRASVYGKLNIMFPMVATINEFREAKAILLEEKENLKNEGHDISDDIELGIMVEIPATAALADVFAKEVDFFSIGTNDLIQYTLAADRMSERVSYLYQPYNPSILRLVKQVIEASHKEGKWTGMCGEMAGDETAIPLLLGLGLDEFSMSATSILKARRQINGLSKNEMTELANRAVDCATQEEVIELVNNYVK | soluble
12 | VVKLAFPRELRLLTPSQFTFVFQQPQRAGTPQITILGRLNSLGHPRIGLTVAKKNVRRAHERNRIKRLTRESFRLRQHELPAMDFVVVAKKGVADLDNRALSEALEKLWRRHCRLARGS | soluble
13 | MGSDKIHHHHHHMTSVEAFRGLYYPNKIGRLCFLSLEEVMGQNGVKALLRLADLQQYIDAYPPNDLKREFPFEAISKYSVALGTMYGPRGARGLELRAGRVAFSLGLKEFGPLLGMADLALKLMPITMKLKIVLNATAQTFDRFSDQSSHVEEERGRFVYHITRCSNCITRPEPGPVFYIARGILEEATAWVSGGRRFAVEQLSCMGQGNCSSCAFAIGKDPLE | not soluble
14 | MAHHHHHHMPVKRSNKVHKFHEGTGDDNMPVVSMFVVKDGDEPFTRIDVELFVNKVPKACDLFLQTCAFPTVGDKRNAKRGSYKGCRFVRLTKEALQVADGSGPRAVPLSELEAEIGRVNHGVGIASLCRSSTSFDESFFFCLTDNRLELDSLDKRHVAFGRVTGGLDALMGLRDALVPYVQEGCVIVGSPYAVSEVVPKAKQ | soluble
15 | MKFLFIVQGEGRGHLTQAITLEEILRRNGHEVVEVLVGKSSSRRLPGFFNRNIHAPVKRFVSPNFLPTPANKRVSLMRSVAYNLVKLPVYINSINYIRQRIEASGADRVINFYELLTGLTYFLFRPSVPQICIGHQYLFLHKSFEFPKADKVSLALLKFFTVLTSLGAKERLALSFRHMKDDPQNHIRVIPPLLRREVTLHEPYSGDYIHGYMVNAGFSENVMKWHRQHPGIPLRFFWDKWEEEPVKRVDNTLSFYQLDDVEFLRQMAGCKAYASTAGFESVCEAMYLGKPILMVPAHIEQDCNAYDAEKSGAGIISSDFNLQQLLEFAKDYHPNRDFVYWVRGAEYTLLNLLESDSSNYQQVLFNEMYLVEEFI | not soluble
